Measurements taken from patent publication US20240109963A1 (AB THERAPEUTICS, published 2024).
Each block holds one binder with its values, some of them ahead of it.

How the values were obtained:
[1] = target: T1, full-length human Claudin 18.2 on MIA PaCa-2 cells (MIA PaCa-2+ Claudin 18.2) (human, UniProt P56856-2 1-261); test: cell-based or functional assay
T1 sequence (looked up): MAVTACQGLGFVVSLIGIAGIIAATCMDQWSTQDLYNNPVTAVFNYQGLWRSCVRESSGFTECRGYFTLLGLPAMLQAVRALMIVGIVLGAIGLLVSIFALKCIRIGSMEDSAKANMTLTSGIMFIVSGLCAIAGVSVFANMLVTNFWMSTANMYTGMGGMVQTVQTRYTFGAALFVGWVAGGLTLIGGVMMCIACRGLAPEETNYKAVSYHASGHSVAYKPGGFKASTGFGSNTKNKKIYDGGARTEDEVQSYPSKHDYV

CD3 on Jurkat cells = target: T2, CD3 on Jurkat cells; test: flow cytometry on Jurkat cells, CD3 binding (T cell) (summary table)
T2 construct: whole, on cells; also called CD3+ Jurkat cells

[2] = target: T3, Claudin 18.2 on CHO cells (CHO+ Claudin 18.2) (UniProt P56856-2 1-261); test: flow cytometry, unpurified supernatant on CHO+ Claudin 18.2 cells, FITC-positive cells
T3 construct: whole, on cells; also called CHO_18.2
T3 sequence (looked up): T1 sequence (looked up)
Protocol: To compare the half maximal effective concentration (EC50) of the lead BsAbs, 8.5×10⁴ cells/well of CHO+ Claudin 18.2 cells in 100 μl FACS buffer were seeded in a V-bottom 96-well plate. […] The final concentrations of the BsAbs were 10 μg/ml, 1 μg/ml, 100 ng/ml, 10 ng/ml, 1 ng/ml, 100 pg/ml, 10 pg/ml, and 1 pg/ml. After incubating the plate at RT for 45 minutes, the cells were washed twice with the FACS buffer and cell pellets were resuspended in 100 μl FACS buffer containing goat anti-human-FITC (1:200) for 30 minutes at RT in dark. Afterwards, the cells were washed twice with FACS buffer, and cell pellets were resuspended in 120 μl FACS buffer. The percentage of FITC-positive cells were analyzed by flow cytometry.

T2 sequence (P07766 23-207, chain 1 of 3): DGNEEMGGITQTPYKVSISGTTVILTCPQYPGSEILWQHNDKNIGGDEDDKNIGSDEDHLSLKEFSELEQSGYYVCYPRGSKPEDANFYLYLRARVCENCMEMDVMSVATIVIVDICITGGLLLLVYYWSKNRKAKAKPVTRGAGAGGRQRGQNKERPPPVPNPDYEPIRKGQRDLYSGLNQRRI
T2 sequence (P09693 23-182, chain 2 of 3, further chain): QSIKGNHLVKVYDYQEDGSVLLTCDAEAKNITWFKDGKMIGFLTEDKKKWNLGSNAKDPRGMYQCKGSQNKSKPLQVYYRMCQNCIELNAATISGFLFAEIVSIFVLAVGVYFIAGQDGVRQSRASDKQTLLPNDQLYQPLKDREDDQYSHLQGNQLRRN
T2 sequence (P04234 22-171, chain 3 of 3, further chain): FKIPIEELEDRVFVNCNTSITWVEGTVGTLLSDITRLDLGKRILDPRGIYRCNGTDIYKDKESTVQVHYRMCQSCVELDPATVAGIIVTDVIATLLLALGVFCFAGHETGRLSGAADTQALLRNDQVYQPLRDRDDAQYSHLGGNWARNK

- T cell activation EC50 (CD69-positive cells) [1]: 0.056 µg/mL
- EC50 (CD3 on Jurkat cells): 58.9 µg/mL
B1: Claudin 18.2-1B2/CD3 BsAb (BiSpecific-V1 structure) (bispecific antibody)
VHH-Fc: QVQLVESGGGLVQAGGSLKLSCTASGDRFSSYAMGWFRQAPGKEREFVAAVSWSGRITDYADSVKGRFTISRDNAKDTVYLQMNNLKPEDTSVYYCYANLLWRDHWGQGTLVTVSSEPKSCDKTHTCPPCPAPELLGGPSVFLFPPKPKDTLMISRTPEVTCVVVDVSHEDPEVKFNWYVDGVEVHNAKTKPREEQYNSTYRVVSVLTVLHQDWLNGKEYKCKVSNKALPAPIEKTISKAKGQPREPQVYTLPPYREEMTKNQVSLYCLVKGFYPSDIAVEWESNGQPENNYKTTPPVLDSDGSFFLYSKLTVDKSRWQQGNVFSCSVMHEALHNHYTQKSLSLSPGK
heavy: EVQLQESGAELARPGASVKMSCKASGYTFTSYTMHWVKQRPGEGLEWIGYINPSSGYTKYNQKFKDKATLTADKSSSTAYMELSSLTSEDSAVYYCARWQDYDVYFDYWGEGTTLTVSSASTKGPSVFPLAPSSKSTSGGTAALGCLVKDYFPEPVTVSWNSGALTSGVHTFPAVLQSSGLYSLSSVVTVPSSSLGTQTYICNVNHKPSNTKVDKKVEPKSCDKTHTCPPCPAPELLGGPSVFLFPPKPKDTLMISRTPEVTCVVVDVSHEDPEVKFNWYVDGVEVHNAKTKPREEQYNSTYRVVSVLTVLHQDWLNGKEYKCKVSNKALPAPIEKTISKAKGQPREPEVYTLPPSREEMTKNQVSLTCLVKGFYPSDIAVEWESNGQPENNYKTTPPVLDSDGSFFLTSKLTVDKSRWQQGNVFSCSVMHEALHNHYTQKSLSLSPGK
light: QIVLSQSPAILSASPGEKVTMTCRASSSVSYIHWFQQKPGSSPKPWIYATSNLASGVPVRFSGSGSGTSYSLTISRVEAEDAATYYCQQWTSNPPTFGGGTKLEIKRTVAAPSVFIFPPSDEQLKSGTASVVCLLNNFYPREAKVQWKVDNALQSGNSQESVTEQDSKDSTYSLSSTLTLSKADYEKHKVYACEVTHQGLSSPVTKSFNRGEC

- EC50 [2]: ~0.006 µg/mL
B2: Claudin 18.2-4G1/CD3 BsAb (BiSpecific-V1 structure) (bispecific antibody)
VHH-Fc: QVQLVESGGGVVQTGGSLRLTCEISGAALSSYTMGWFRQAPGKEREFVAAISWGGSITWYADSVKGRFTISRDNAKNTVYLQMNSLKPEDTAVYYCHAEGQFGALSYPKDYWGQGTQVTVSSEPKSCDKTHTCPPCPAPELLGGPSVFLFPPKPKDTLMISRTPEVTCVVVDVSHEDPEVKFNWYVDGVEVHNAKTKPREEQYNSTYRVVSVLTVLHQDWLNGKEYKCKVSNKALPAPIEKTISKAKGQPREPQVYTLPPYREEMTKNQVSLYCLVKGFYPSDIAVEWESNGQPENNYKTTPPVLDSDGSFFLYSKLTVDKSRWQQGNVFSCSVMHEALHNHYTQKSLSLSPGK
heavy: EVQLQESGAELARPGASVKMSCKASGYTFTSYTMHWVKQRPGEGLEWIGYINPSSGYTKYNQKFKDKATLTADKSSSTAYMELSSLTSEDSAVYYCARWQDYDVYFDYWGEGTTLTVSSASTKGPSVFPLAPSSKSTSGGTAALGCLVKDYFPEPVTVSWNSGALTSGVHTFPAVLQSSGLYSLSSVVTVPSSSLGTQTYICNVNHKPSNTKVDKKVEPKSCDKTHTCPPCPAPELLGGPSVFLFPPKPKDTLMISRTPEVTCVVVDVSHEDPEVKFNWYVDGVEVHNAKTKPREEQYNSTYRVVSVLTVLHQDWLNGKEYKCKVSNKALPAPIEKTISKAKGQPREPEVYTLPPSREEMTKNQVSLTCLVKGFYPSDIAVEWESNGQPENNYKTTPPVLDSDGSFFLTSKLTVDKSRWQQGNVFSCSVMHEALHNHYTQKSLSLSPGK
light: B1 light
notes: tested as unpurified culture supernatant

- EC50 [2]: ~0.013 µg/mL
B3: Claudin 18.2-3C2/CD3 BsAb (BiSpecific-V1 structure) (bispecific antibody)
VHH-Fc: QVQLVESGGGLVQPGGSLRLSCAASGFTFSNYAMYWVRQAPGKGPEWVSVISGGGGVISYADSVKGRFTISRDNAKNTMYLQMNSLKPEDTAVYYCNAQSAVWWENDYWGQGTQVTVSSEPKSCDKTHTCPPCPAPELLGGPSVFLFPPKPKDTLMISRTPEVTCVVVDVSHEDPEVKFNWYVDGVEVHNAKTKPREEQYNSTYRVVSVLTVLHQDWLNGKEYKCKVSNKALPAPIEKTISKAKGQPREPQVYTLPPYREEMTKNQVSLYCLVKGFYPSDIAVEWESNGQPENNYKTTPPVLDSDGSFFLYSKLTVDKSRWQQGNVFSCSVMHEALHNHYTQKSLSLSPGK
heavy: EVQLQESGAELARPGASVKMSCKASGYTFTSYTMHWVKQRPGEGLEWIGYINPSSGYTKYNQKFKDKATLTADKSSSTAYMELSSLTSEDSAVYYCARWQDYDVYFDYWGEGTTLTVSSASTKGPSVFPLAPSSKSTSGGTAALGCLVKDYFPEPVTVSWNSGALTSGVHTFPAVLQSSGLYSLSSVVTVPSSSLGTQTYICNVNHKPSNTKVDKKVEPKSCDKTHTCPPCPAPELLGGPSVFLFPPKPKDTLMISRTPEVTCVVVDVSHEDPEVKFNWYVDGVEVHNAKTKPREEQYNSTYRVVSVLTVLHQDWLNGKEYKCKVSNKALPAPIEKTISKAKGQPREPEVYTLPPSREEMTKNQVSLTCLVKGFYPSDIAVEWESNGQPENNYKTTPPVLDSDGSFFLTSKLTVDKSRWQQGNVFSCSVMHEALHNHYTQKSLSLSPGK
light: B1 light
notes: as for B2
